From patent US20220112276A1 (Janssen / Centocor, published 2022)
Positions count from the first letter of the chain named. Blank lines part the entries; values can stand above or below the binder they belong to.

Biological target: T1, recombinant human pIgR (hpIgR) (human, UniProt P01833 19-638, limits assumed)
T1 construct: probably the ECD
Assay: ELISA, periplasmic VHH, BSA subtracted
Experimental: Initial Library Screening: After each panning round showing enrichment, 94 individual clones were expressed and tested in an off-phage initial screen for specific binding to mpIgR or hpIgR (respectively depending on the antigen used). Screening of monoclones in an off-phage format was performed by transforming the phagemid pool into a non-amber-suppressor strain of E. coli and picking random colonies. The VHH proteins were recovered in the periplasmic fraction by performing osmotic shock. Periplasmic fractions containing His-tagged nanobodies were tested for binding to hpIgR or mpIgR. Bound nanobody was detected with a polyclonal anti-alpaca VHH domain antibody. Each clone was also tested for non-specific binding to BSA in parallel. The ELISA values obtained on BSA were subtracted from the ELISA values obtained on the respective pIgR antigen.
Repeat Testing of Positive Hits: The hits identified in the initial screen of the phage pools were re-tested for binding to either hpIgR or mpIgR. Periplasmic fractions were prepared again by performing osmotic shock. Periplasmic fractions containing His-tagged nanobodies were tested for binding to mpIgR. In this assay, bound nanobody was detected with an anti-VHH antibody. Each clone was also tested for non-specific binding to BSA in parallel. The ELISA values obtained on BSA were subtracted from the ELISA values obtained on the respective pIgR antigen.

T1 sequence (P01833 19-638 limits assumed): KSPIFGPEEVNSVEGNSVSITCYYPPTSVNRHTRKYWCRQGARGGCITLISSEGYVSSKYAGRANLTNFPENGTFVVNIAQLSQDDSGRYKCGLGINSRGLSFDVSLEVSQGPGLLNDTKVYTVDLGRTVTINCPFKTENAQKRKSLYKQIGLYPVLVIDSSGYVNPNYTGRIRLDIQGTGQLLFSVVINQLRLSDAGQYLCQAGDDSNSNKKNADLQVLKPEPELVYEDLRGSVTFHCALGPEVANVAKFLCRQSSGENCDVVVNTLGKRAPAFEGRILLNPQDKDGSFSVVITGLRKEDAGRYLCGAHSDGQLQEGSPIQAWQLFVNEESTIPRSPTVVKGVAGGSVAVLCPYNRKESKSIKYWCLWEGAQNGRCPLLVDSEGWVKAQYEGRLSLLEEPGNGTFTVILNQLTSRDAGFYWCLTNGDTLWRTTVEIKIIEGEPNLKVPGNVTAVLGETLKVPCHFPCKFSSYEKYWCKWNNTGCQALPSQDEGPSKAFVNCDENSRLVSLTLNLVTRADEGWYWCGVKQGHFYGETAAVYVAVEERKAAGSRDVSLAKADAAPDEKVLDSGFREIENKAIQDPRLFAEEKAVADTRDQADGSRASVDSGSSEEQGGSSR

ELISA (OD): 2.12 OD
B1: 01F12R2 His-tagged VHH (VHH)
VHH: EVQLVESGGGLVQPGGSLRLSCAASGRTFSSYTMGWFRQAPGEEREFVSAISWSSDGTYYKYYTDTVKGRFTISRDNAETTVHLQMNSLKPEDTAVYYCAASSSGTYGDPRSEREYRYWGQGTLVTVSS

ELISA (OD): 2.19 OD
B2: 01G07R3 His-tagged VHH (VHH)
VHH: QVQLVESGGGLVQAGDSLRLSCAASGRTLSFDTYAMGWFRQAPGKEREFVASIDWSGGTTYYADSVKGRFTVTRDNAKNTVTLRMNSLKPADTAVYYCAAAQYYRSGTSFPANYWGQGTLVTVSS

ELISA (OD): 2.4 OD
B3: 01F05R2LS His-tagged VHH (VHH)
VHH: QVQLVESGGGLVQAGGSLRLSCAASGSIFAINGMGWYRQAPGKQRELVAVITRGGSTNYADSVKGRFTISRDNAKNTVSLQMNSLKPEDTAVYYCAATGVLAGWAAGDGMDYWGKGTLVTVSS

ELISA (OD): 0.55 OD
B4: 01D09R3 His-tagged VHH (VHH)
VHH: QVQLVESGGGLVQAGGSLRLSCAASGRTFSVYAMGWFRQAPGKERQFVAAITWSGGSTSYADSVKGRFTISRDNAKNTVYLQMNILKPEDTAVYYCAAATNPYFSDYYPDLKYEFDYWGQGTLVTVSS

ELISA (OD): 1.85 OD
B5: 01C12R2 His-tagged VHH (VHH)
VHH: EVQLVESGGGLVQAGGSLRLSCAASGRTFGSYSMGWFRQAPGKEREFVGAISWSGSSTYKYYEDSVKGRFTISRDNAKNTVPLQMNSLKPEDTGVYFCGGTMERRDPRRTSAYDYWGQGTLVTVSS

ELISA (OD): 1.69 OD
B6: 01E02R3LS His-tagged VHH (VHH)
VHH: EVQLVESGGGLVETGGSLRLSCAASGRTESTYTMAWFRQAPGKERERVATISFSGSTTTYLASVQGRFTISRDGAKNTIFLQMNGLKPEDTAVYYCALDTRRRVGSSPRFYDYWGQGTLVTVSS

ELISA (OD): 2.2 OD
B7: 01E01R3LS His-tagged VHH (VHH)
VHH: QVQLVESGGGLVQAGGSLRLSCAASGRSFSSYNMGWFRQAPGKERDLVAVVTWSGGGTSYADSVKGRFTIARDNANARLYLEMTSLKPEDTAIYYCAATQDWYGGTRAFRAASFHSWGQGTQVTVSS

ELISA (OD): 2.18 OD
B8: 01H03R2L His-tagged VHH (VHH)
VHH: B7 VHH with Q1E, Q13R, A71S, R110H, Q122L

ELISA (OD): 0.48 OD
B9: 01A07R3LS His-tagged VHH (VHH)
VHH: QVQLVESGGGLVQAGDSLRLSCAASGRTFPTYAMGWFRQAPGKEREFVATIRWSGSTQYKYYADFVKGRFTISRDNAKNTVYLQMDSLKPEDTAVYYCAATTLLGDPRALNEYAYWGQGTQVTVSS

ELISA (OD): 1.9 OD
B10: 01G09R3LS His-tagged VHH (VHH)
VHH: B9 VHH with Q1E, G105T, E112A

ELISA (OD): 2.11 OD
B11: 01C03R3LS His-tagged VHH (VHH)
VHH: EVQLVESGGGLVQPGGSLRLSCVASGLPGSSSRMAWFAQAPGKEREFVAAIAWRGRTSYKYYSDSVKGRFTVSGDNAKRTLDLQMKDLNPEDTALYFCAAHPNDDGDPRISGNYQYWGQGTQVTVSS

ELISA (OD): 1.54 OD
B12: 01G07R2L His-tagged VHH (VHH)
VHH: B11 VHH with E1Q, G29F, A52G, S63A, R79K, N89K

ELISA (OD): 2.06 OD
B13: 01D04R3LS His-tagged VHH (VHH)
VHH: EVQLVESGGGLVQAGGSLRLSCAASGRTFRSYAMGWFRQAPGKEREFVADISWRGGRLYYADSVKGRFTISRDNAKNTVYLQMNSLKPEDTAVYYCAATGDQPAFTTAQGMGAMLEYDYWGQGTLVTVSS

ELISA (OD): 2.09 OD
B14: 01F04R2LS His-tagged VHH (VHH)
VHH: EVQLVESGGGLVQTGGSLRLSCAASGRTFSSYAMGWFRQAPGKEPERDFVAALRWSNDRTYYKYYADSVKGRFTISRDNAKNTVYLQMNTLKPEDTAVYYCAGGNYFSDPRVDKEYNYWGQGTQVTVSS

ELISA (OD): 0.56 OD
B15: 01C03R3 His-tagged VHH (VHH)
VHH: QVQLVESGGGLVQAGGSLRLSCAASGRTFSSYAMGWFRQAPGKEREFVAAIHWNGASTYRYSADSVKGRFTISRDNAKNTVYLQMNSLKPEDTAAYYCAASPPPTVGDVRDPANYDSWGQGTLVTVSS

ELISA (OD): 0.74 OD
B16: 01G03R3L His-tagged VHH (VHH)
VHH: QVQLVESGGGSVQAGGSLRLSCAASGRTFSNYAMGWFRQAPGKEREFVAGISRSGGSTYSADSVKGRFTISRDNAKNTVYLQMNSLKPEDTAVYYCAADGLDYALGFRGDYWGQGTLVTVSS

ELISA (OD): 2.1 OD
B17: 01E05R2 His-tagged VHH (VHH)
VHH: QVQLVESGGGLVQAGGSLRLSCAASGRAFSSGRMGWFRQAPGKEREFVAAISWSGHTTYKYYADSVKGRFTISRENAKNTVSLQMNSLKPEDTAVYYCAARQSLVAGGDPRGQSEYDYWGQGTLVTVSS

ELISA (OD): 2.45 OD
B18: 01D02R3LS His-tagged VHH (VHH)
VHH: QVQLVESGGGLVQAGDSLTLSCAASGRSVGFDTYGMAWFRQAPGKEREFVASIAYNGETTSYADSVQGRFTVTRENAKNTIALRMNGLKPDDTAVYYCAAAQYYLTGTSFPAKFWGQGTLVTVSS

ELISA (OD): 2.14 OD
B19: 01F03R2LS His-tagged VHH (VHH)
VHH: EVQLVESGGGLVQAGDSLRLSCAASGRTGSSGAMGWFRQGPGKEREFVAALMWRNTVTYKYYEDSVKGRFTISRDNAKNTAYLQMNSLKPEDTAVYYCAADPDTYGDPRNSGAYDYWGQGTLVTVSS

ELISA (OD): 1.68 OD
B20: 01A07R3 His-tagged VHH (VHH)
VHH: EVQLVESGGGLVQTGESLRLSCAASGRAFSDLRMAWFRQVPGKEREFVAAVEWRGSSRYYYSADSVKGRFTISRTSPKGETYLQMNGLKPEDTAVYYCAAVSPVVGDPRNSDTYNYWGQGTQVTVSS

ELISA (OD): 1.97 OD
B21: 01H02R3LS His-tagged VHH (VHH)
VHH: QVQLVESGGGLVQPGGSLRLSCAASGSIFSASVMGWYRQGPGKQREFVARISPGGVTHYADSVKGRFTISKDNAKNTVTLQMNSLKPEDTAVYYCNADRFGFEVYWGQGTLVTVSS

ELISA (OD): 1.98 OD
B22: 01F04R3LS His-tagged VHH (VHH)
VHH: EVQLVESGGGLVQAGGSLRLSCAASGRTFSRYAMGWFRQAPGKEREFVAAIAWSGGAIYYADFVKGQFTISRDNAKNTVDLEMNRLKPEDTAVYYCGSTRDPRVGDKKFYDYWGQGTQVTVSS

ELISA (OD): 2.15 OD
B23: 01G05R2LS His-tagged VHH (VHH)
VHH: QVQLVESGGGLVQAGDSLALSCAGSGDTFSNYAMGWFRQAPGKEREFVADISWYSANIGYADSVKGRFTISRDNAKNMVTLRMNSLKPEDTAVYYCAADRNHWPVKGDYWGQGTQVTVSS

ELISA (OD): 2.15 OD
B24: 01A04R3LS His-tagged VHH (VHH)
VHH: QVQLVESGGGSVQPGGSLRLSCAASGIDVSISTIMWYRQPPGRQRELVADVIPSGRSTTYTESVKGRFTVTRDNAKNTVYLQMSGLKPEDTAVYYCNAFVRRENYWGQGTQVTVSS

ELISA (OD): 1.3 OD
B25: 01C11R2 His-tagged VHH (VHH)
VHH: EVQLVESGGGLVQTGGSLRLSCAASGRTFSTYRMGWFRQAPGKEREFVAAISWSTGSTYYADSVKGRFAISRDNAKNTIYLQMNSLKPEDTAVYYCAAGMVATTRSSAYPYWGQGTQVTVSS

ELISA (OD): 1.07 OD
B26: 01E03R3 His-tagged VHH (VHH)
VHH: QVQLVESGGGLVQTGGSLRLSCAASGRTFSVYRVGWFRQAPGKEREFVAAVIWSGASTYKYAADSVKGRFTISRDNAENTVYLQMNSLKPEDTAVYYCAADPLGLPGPDVRVEGGYRHWGQGTLVTVSS

ELISA (OD): 1.96 OD
B27: 01E10R3 His-tagged VHH (VHH)
VHH: QVQLVESGGGLVQSGGSLRLSCAASGRTFSDYAMGWFRQAPGKERELVAAITWNGGSTYYADSVKGRFTISRDNAKNTVDLQMNSLKPEDTAVYYCAADPLNSDSAGTYDYWGQGTLVTVSS

ELISA (OD): 1.95 OD
B28: 01D01R3 His-tagged VHH (VHH)
VHH: EVQLVESGGGLVQAGGSLRLSCAASGRTFSVYGMGWFRQAPGQERAFVAAISWSDGSTYYADSVKGRFTISRDNAKNTMYLQMNSLKPEDTAVYFCAADLTGWGLDADVSEYDYWGQGTQVTVSS

ELISA (OD): 1.35 OD
B29: 02B11R3 His-tagged VHH (VHH)
VHH: EVQLVESGGGLVQAGGSLRLSCAASGRTFSPYGMGWFRQTPGKERAFVAAVDWNDGSTYYSDSVKGRFTISRDNAKNTVYLQMNSLKSEDTAVYYCAADLTGWGLDADVSEYDYWGQGTLVTVSS

ELISA (OD): 0.73 OD
B30: 01G04R3 His-tagged VHH (VHH)
VHH: B28 VHH with E1Q

ELISA (OD): 2.13 OD
B31: 01E03R2 His-tagged VHH (VHH)
VHH: B28 VHH with Q120L

ELISA (OD): 1.85 OD
B32: 01F09R3 His-tagged VHH (VHH)
VHH: QVQLVESGGGLAQAGGSLTLSCAASGTAAGIDVMGWYRQTPGNSREFVARIFSNDVTHYADSVTGRFTLSRTQDKNTVSLQMNSLKPDDTGVYYCNARIWTGSTTVDYWGQGTQVTVSS

ELISA (OD): 2.13 OD
B33: 01E04R3LS His-tagged VHH (VHH)
VHH: EVQLVESGGGLVQAGDSLRLSCAASGRTFTTYVMGWFRQAPGKDREFVATITWSGSTNYKYYADPVKGRFTISRDNAKNTVYLQMNSLKPEDTAVYYCTSSTVVTDPRKLNEYAYWGQGTLVTVSS
